{"source": "paper doi:10.1101/2020.02.16.951632", "key": {"[1]": {"molecular_target": "chloride intracellular channel 1 construct CLIC1C24 (UniProt O00299)", "experiment": "FRET or BRET"}, "[2]": {"molecular_target": "chloride intracellular channel 1 construct CLIC1C24 (UniProt O00299)", "experiment": "two-colour single-molecule TIRF colocalisation with photobleaching step counting"}}, "note": "Several values for one entry are separate records, joined by “and”; a condition that tells them apart may be missing. Identical values can stand only once."}
{"substance": "human αB-crystallin mutant αBc_(C176), fluorescently labelled (natural protein)", "values": [{"measurement": "initial FRET efficiency (E) of the complexes", "setting": "[1]", "value": "0.8 to 1"}, {"measurement": "proportion of CLIC1C24 colocalised with αBc (C176) (maximum, after 4 hr)", "setting": "[2]", "value": 50, "unit": "%"}, {"measurement": "αBc subunits per complex (0.25 – 0.5 hr)", "setting": "[2]", "value": "1 subunits and 3 subunits"}, {"measurement": "αBc subunits per complex (complexes whose abundance increased after 1 hr)", "setting": "[2]", "value": "> 6", "unit": "subunits"}, {"measurement": "αBc subunits per complex (more complexes at molar ratio 2:1 to 4:1)", "setting": "[2]", "value": "> 10", "unit": "subunits"}, {"measurement": "stoichiometry N", "setting": "[2]; scale: αBc per CLIC1", "value": 1}]}
